± gives the uncertainty stated by the source.
experiment: amyloid nucleation score (Sup35N fusion, yeast selection) (log enrichment); library NNK3; higher = more nucleation; inactive = no reads after selection
Method in brief: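 Sup35N fusions to peptides of 20 random codons were expressed in psi-negative yeast, induced 24 hours with 100 μM copper sulfate, and grown 7 days at 30°C on medium lacking adenine and uracil. Input and output plasmid inserts were sequenced by Illumina. The nucleation score is the DiMSum log enrichment of output over input reads, centred on the mode score of non-aggregating sequences. Sequences with under 100 input reads were excluded.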

Amyloid nucleation score, 1.1 ± 0.14:
PAYLHYSIFWQNVFSNVLIM

Amyloid nucleation score, 2.28 ± 0.082:
NYYYMYGKCSI

Amyloid nucleation score, 2.42 ± 0.067:
NVLFLVNY

Amyloid nucleation score, 1.54 ± 0.1:
NWCLVYRPVKL

Amyloid nucleation score, -0.821 ± 1.1:
NNVTSIN

Amyloid nucleation score, -0.363 ± 0.98:
NYDERCV

Amyloid nucleation score, 0.958 ± 0.21:
NLMCW

Amyloid nucleation score, 1.2 ± 0.086:
PESFKGTQCVKFFYNCLLFK

Amyloid nucleation score, 1.34 ± 0.14:
NLSLGQFIKAAVKFVHKPRK

Amyloid nucleation score, 1.76 ± 0.066:
NYFQFCCGLETVNNYYRKCE

Amyloid nucleation score, inactive:
NKVLFYVTYLFFIRNFLV, NKWQRNSSNKFTCAQVPFFA, NLEGRKRLMILVFKCCELAI, NLFSRIVHSGLRMSTNCILI, NLGKTLNTLYLVFTFRDVF, NLGTATLHLSYYMDPLTT, NLMCVNTVGLKYGPRELSNH, NLNFDWTPVPSFSYHAPSKF, NLRNDIYMTSICCE, NLVRFLLKFMVKEYLRFTYI, NLVWFHIATEVIERNVGGGN, NLWLECNLESSQRSSLFTKL, NMCYSVCVHYLLTAESKCHT, NMFRFLMCSSTRHYVRIMTN, NMIAVYLVLPRDSLGMIFTF, NMIEVI, NMQGLRFSRKCCEHRGFYIC, NMVPNCDLLMKSRLKVSNSA, NMYSCNSGGHKQLCLKVGDL, NNCYRMGFLCPTNRQTMEG, NNIIVVKTAS, NNMLIGVRSVRAYKWFMHCV, NNPSHGTRQNTYSALGWDHT, NNSFNYGNHGRSSVFNNLRC, NNVVHEVNFLELRLRVILGY, NNYSPLFRTTAGYSSHFTRQ, NPDAYKERTDLVWSVVVLLW, NPFRGFLTIQCRPILRFPDK, NPMGWGQLTGCFHYVAMFCS, NPMTHYHMIHRSQGNCLLRR, NPRVYNMIQPAYVNWSMDVT, NQSGALVG, NQWIAICNPSPFRVLTAHI, NREHMAISSCRLVKHCFFWT, NRPSMSRGVDTRLMSLHETL, NRQSLGIRSYFC, NRYYPVGNYCARTWQTFTFL, NSCLV, NSDFLSTVGYEGLLHTQGCA, NSFLRVIVC, NSGNSIAVAAALDKDTLQAG, NSIIGPTHHIVK, NSKGMI, NSLCSLVLTLIWWIKCPCDV, NSLPCLGYGMFM, NSMRVKVRTLTVYISEFTVS, NSNSYLGTNFILNQYVLCID, NSSDVRQVLAIIRCGVV, NSSTDFS, NSTDRMTASS, NSYFLSRTLLSTSGRRTCRM, NSYGPRKSSGRVAPF, NSYQY, NTFVDGKSRYYSYLRIVQIL, NTGYVVLHKDFHSLASSTKV, NTHKQWVRTLRWVLVSYNCC, NTLDDDFRISPDATVYSVYW, NTMMA, NTNRLFNSLRTKLGFCFYSF, NVAAFGVAMPGMSV, NVALRAGSREG, NVEMLFNNSHHSTDEDAWYD, NVFLRNLA, NVLALECVRDWT, NVRTLNSLDDLGVSFSSACT, NVSPIGQISVNYGRMDCSEG, NVVFV, NWENILGDSYLCVKWSL, NWFPGTRGRLLQVTLGYLVD, NWMGTGGYDMDDFFE, NWQYLNG, NWRLCFNRGRCRYMIMLQKF, NWSSH, NYDRYCANIMYTAMCIRLLW, NYGLLQFISIWSNILVHSNV, NYVLRTSVVL, NYWYITKERGSNLVWSNGDE, NYYNLYCLTVLQKRLQAGMQ, NYYNQT, PCGVEMLWFKG, PCYCSFVSRSYYCKDYVRNS, PDLTKNSWYLYSYRLV, PEASLLVPMVSSYPLHFA, PEAVAAKRPSLQYPFASMTS, PEAVTCCNQKMTPVFIIGHP, PEFYA, PELLEHYMSHF, PESGAPNPSGYCLAHH, PEVCEPLLGFLCFCPVNSVP, PFCLPRGASCRAGCGEHIKG, PFFRASRLWLSLVRMRTLSV, PFGSSTRFIHVFYGAWGHSK, PFGVFHSSATTKRHFYMVGV, PFHSVYVDDDAWNGVCLPAV, PFMCGRAIRLSFREFTRLKN, PFSSFWVTRTLIALWYSLRT, PGEHCWRRFLT, PGFINFRGVTGKSLTYSILI, PGLLLNRMLDARFM

Amyloid nucleation score, 0.142 ± 0.32:
NKYYVRSSFELVIVYA

Amyloid nucleation score, 0.234 ± 0.25:
PCFEFSTSVRVFSDAKGLSV

Amyloid nucleation score, -0.677 ± 1.4:
NNRVLQRRPHRFHGANVTWS

Amyloid nucleation score, 1.13 ± 0.11:
NMILFISCEIPGRGVFGRCC

Amyloid nucleation score, 0.958 ± 0.12:
NVFFIRNNQTTGRLKFWCQV

Amyloid nucleation score, 2 ± 0.095:
NLEYCSILFKRH

Amyloid nucleation score, 1.35 ± 0.077:
NVLLCINTRYR

Amyloid nucleation score, 0.476 ± 0.23:
NLRWSLIFMFGDCWGACGCG

Amyloid nucleation score, -1.1 ± 1.9:
PFWKLKQKWVR

— the supplement of paper PMC12042874
